Here are results for seven molecules from patent publication US20100034738A1 (IMMUNOMEDICS, published 2010).

Positions count from the first letter of the chain named. Names may count otherwise.

For assay [1], the target named is T1, CD20 (human B lymphocyte-restricted differentiation antigen, Bp35) (human) (UniProt P11836).
T1 sequence (looked up): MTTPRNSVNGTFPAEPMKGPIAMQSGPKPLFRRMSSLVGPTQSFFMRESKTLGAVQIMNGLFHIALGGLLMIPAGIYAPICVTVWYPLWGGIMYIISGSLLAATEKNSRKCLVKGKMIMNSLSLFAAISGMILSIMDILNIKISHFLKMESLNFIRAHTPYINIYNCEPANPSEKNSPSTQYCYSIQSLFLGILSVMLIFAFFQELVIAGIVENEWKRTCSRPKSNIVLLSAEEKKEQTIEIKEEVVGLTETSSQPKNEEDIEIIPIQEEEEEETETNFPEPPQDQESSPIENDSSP
Description: flow cytometry, PE-labelled MAb dissociating from Raji cells, without competing veltuzumab-Fab'-NEM. A general note: Flow cytometry measures light scatter and fluorescence of single cells or particles in a stream.

Assay [2] concerns the target T2, CD20 (human B lymphocyte-restricted differentiation antigen, Bp35) (human, UniProt P11836 1-297).
T2 construct: whole, on cells; Endogenous CD20 on lymphoma cell lines; also called cell-surface CD20
T2 sequence (looked up): T1 sequence (looked up)
The experiment in a line: flow cytometry, dissociation of PE-labelled MAb from live Daudi cells at 37 C with excess veltuzumab Fab'-NEM; % T=0 MFI against time, one-phase exponential decay fit [table, column Daudi]. How it is done:
(§1) FIG. 5. […] The off-rate was determined by non-linear regression (one phase exponential decay) and P-values were generated by F-test using GraphPad Prism software.
(§2) Cells (Daudi, Raji, or Ramos) in 0.5 mL of CM (phenol red-free RPMI 1640 media supplemented with 10% FBS) at 1×10⁶ cells/mL were incubated with 5 μg of each PE-labeled MAb at room temperature for 30 min, pelleted at 400×g, washed twice with CM, resuspended in 1.5 mL of CM, and split into two 0.75-mL aliquots. […] Subsequent measurements were taken at 30-min intervals. The percent maximal binding, which is the quotient of the MFI at T=X divided by that at T=0, was plotted against time, and the results analyzed by Prism software (GraphPad Software Inc., San Diego, Calif.) to yield the half-life or off-rates.

In assay [3] the target is T2, CD20 (human B lymphocyte-restricted …). Description: flow cytometry, dissociation of PE-labelled MAb from live Raji cells (exp 2) at 37 C with excess veltuzumab Fab'-NEM; % T=0 MFI against time, one-phase exponential decay fit [table, column Raji (exp 2)]. How it is done:
as §2

The target is the same in assay [4]. Description: flow cytometry, dissociation of PE-labelled MAb from live Raji cells (exp 1) at 37 C with excess veltuzumab Fab'-NEM; % T=0 MFI against time, one-phase exponential decay fit [table, column Raji (exp 1)]. The procedure: as §1, §2
Assay [5] shares this target. The experiment in a line: flow cytometry, PE-labelled MAb dissociating from Raji cells, without competing veltuzumab-Fab'-NEM. The procedure:
as §2

Assay [6] has the same target. The experiment in a line: saturation binding of 125I-labelled MAb to Raji cells, nonlinear regression / Scatchard; apparent KD, replicate assays. How it is done: (§3) Raji cells (5×10⁵) were incubated with radioiodinated MAbs in an assay volume of 225 μl, using tissue culture media as diluent, for 1 h at 37° C. or room temperature. Cells then were washed twice with PBS containing 1% horse serum, and cell pellets were counted in a gamma counter. The MAbs were titrated at a 2:3 serial dilution starting with approximately 2×10⁶ cpm/2 μg MAb/tube, run in triplicate. Non-specific binding was measured by including replicate unlabeled MAb.

For assay [7] the target is unchanged. Description: flow cytometry, dissociation of PE-labelled MAb from live Ramos cells at 37 C with excess veltuzumab Fab'-NEM; % T=0 MFI against time, one-phase exponential decay fit [table, column Ramos]. The procedure:
as §1, §2

Assay [8] has the same target. The experiment in a line: direct cell-surface saturation binding of 125I-labelled MAb to Raji cells; non-linear regression, one-site binding model (Prism); one representative of three experiments. The procedure: FIG. 4. […] Bₘₐₓ and Kd were determined by non-linear regression analysis using a one-site binding model with Prism software.
as §3

Assay [9] shares this target. The experiment in a line: flow cytometry off-rate on lymphoma cells, with or without a competitive binder (summary of Example 5). The procedure: as §2
For assay [10], the target named is T1, CD20 (human B lymphocyte-restricted differentiation antigen, Bp35) (human). The experiment in a line: cell-based or functional assay.
Assay [11] addresses anti-idiotype antibodies. The experiment in a line: binding of radioiodinated MAb to anti-idiotype antibodies.
The target of assay [12] is T2, CD20 (human B lymphocyte-restricted …). Description: flow cytometry, PE-labelled MAb dissociating from Daudi, Ramos and Raji cells at 37 C with excess veltuzumab-Fab'-NEM. How it is done: as §2
For assay [13] the target is unchanged. Description: flow cytometry, PE-labelled MAb dissociating from Raji cells at 37 C with excess veltuzumab-Fab'-NEM. How it is done: as §2

With “1F5, murine anti-CD20 monoclonal antibody”, in [1], the dissociation half-life was 195 min.

B1: rituximab (chimeric anti-CD20, c2B8) (antibody, V domains shown)
VH: QVQLQQPGAELVKPGASVKMSCKASGYTFTSYNMHWVKQTPGRGLEWIGAIYPGNGDTSYNQKFKGKATLTADKSSSTAYMQLSSLTSEDSAVYYCARSTYYGGDWYFNVWGQGTTVTVSS
VL: QIVLSQSPAILSASPGEKVTMTCRASSSVSYIHWFQQKPGSSPKPWIYATSNLASGVPVRFSGSGSGTSYSLTISRVEAEDAATYYCQQWTSNPPTFGGGTK
notes: Commercial chimeric antibody; also called IDEC-c2B8; Rmab
Regarding B1, the “Dissociation Rates (T 1/2 Min)” value is 20.1 min in assay [2], 21.4 min in assay [3], 24.3 min in assay [4] and 19 min in [7]. In [5], this molecule displayed a dissociation half-life of 94 min. Also, the values for the Kd in [6] and in [8] were 6.7 to 8.63 nM and 8.62 nM, respectively.

B2: cA20, chimeric anti-CD20 antibody (antibody, V domains shown)
VH: B1 VH with N109D
VL: DIQLTQSPAILSASPGEKVTMTCRASSSVSYIHWFQQKPGSSPKPWIYATSNLASGVPVRFSGSGSGTSYSLTISRVEAEDAATYYCQQWTSNPPTFGGGTKLEIK
As to B2, the “Dissociation Rates (T 1/2 Min)” value was found to be 58.8 min in assay [2], 62 min in assay [4] and 54.8 min in assay [7]. Moreover, the “off-rate, fold slower than rituximab or D101N” value in assay [9] is approximately 2.5 fold.

B3: V102Y, variant of hA20 with Val to Tyr at Kabat position 102 in the CDR3 of VH (antibody, name in Kabat numbering, V domains shown)
VH: QVQLQQSGAEVKKPGSSVKVSCKASGYTFTSYNMHWVKQAPGQGLEWIGAIYPGNGDTSYNQKFKGKATLTADESTNTAYMELSSLRSEDTAFYYCARSTYYGGDWYFDYWGQGTTVTVSS
VL: DIQLTQSPSSLSASVGDRVTMTCRASSSVSYIHWFQQKPGKAPKPWIYATSNLASGVPVRFSGSGSGTDYTFTISSLQPEDIATYYCQQWTSNPPTFGGGTKLEIK
In assay [10], B3 returned an ADCC (% lysis), Daudi targets, Donor 001 of 47.5 % lysis; an ADCC (% lysis), Daudi targets, Donor 006 of 24.2 % lysis; an ADCC (% lysis), Daudi targets, Donor 009 of 33.4 % lysis.

B4: YDE, Fc variant of V102Y with S239D and I332E in the CH2 domain (antibody, name in Kabat numbering, V domains shown)
VH: B3 VH
VL: B3 VL
With B4, in assay [10], the ADCC (% lysis), Daudi targets, Donor 001 was found to be 58.3 % lysis; the ADCC (% lysis), Daudi targets, Donor 006 is 31.5 % lysis; the ADCC (% lysis), Daudi targets, Donor 009 worked out at 54.5 % lysis.

B5: veltuzumab (hA20), humanized anti-CD20 antibody (antibody, V domains shown)
VH: B3 VH with Y110V
VL: B3 VL
notes: It was 125I-labelled in the Scatchard assay and PE-labelled (Zenon kit) in the off-rate assay; also called v-mab; Vmab
As for B5, the “Dissociation Rates (T 1/2 Min)” value worked out at 54.4 min in assay [2], 61.8 min in assay [3], 59.1 min in assay [4] and 57 min in [7]. This molecule showed an immunoreactivity in assay [11] of more than 90%. Also, the “dissociation half-life, fold longer than rituximab” value in assay [12] turned out to be 2.7 fold. In addition, in [9], the “off-rate, fold slower than rituximab or D101N” value was approximately 2.5 fold. The molecule also returned a dissociation half-life in [5] of 281 min. Also, the Kd in assay [6] was 6.23 to 12 nM; in assay [8] it was 10.8 nM.

B6: D101N, mutant of veltuzumab with Asp to Asn at Kabat position 101 in CDRH3 (antibody, name in Kabat numbering, V domains shown)
VH: B3 VH with D109N, Y110V
VL: B3 VL
notes: Same CDRs as rituximab and identical FRs to veltuzumab; also called D101N-hA20
For B6, the “Dissociation Rates (T 1/2 Min)” value in [3] amounted to 9.4 min. Also, in assay [13], the “off-rate, fold faster than rituximab” value turned out to be 2 fold and the “off-rate, fold faster than veltuzumab” value turned out to be 6 fold. This molecule gave a dissociation half-life in assay [5] of 42 min.
